{"source": "paper PMC3637639", "key": {"[1]": {"target": "β2YFP nAChR subunit (mouse) (UniProt Q9ERK7)", "sequence (Q9ERK7 26-501)": "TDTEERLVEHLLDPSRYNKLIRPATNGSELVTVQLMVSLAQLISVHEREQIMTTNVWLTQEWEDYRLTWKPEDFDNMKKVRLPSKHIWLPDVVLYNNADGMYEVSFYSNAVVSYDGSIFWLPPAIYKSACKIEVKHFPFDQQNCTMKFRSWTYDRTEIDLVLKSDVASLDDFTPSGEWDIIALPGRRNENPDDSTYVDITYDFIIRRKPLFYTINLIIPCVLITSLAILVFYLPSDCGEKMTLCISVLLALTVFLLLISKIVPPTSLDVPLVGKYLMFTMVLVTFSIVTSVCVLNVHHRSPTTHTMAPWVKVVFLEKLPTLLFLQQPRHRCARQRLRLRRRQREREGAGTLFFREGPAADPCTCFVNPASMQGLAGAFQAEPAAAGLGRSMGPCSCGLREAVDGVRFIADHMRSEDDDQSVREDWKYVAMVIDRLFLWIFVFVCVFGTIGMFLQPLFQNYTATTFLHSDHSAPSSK", "assay": "FRET or BRET; sensitized acceptor emission FRET between CFP-RIC-3 (donor) and α7-Venus, β2YFP (with nonfluorescent α4) or α4YFP (with nonfluorescent β2) co-transfected in living HEK293T cells at cDNA ratios of CFP-RIC-3 to subunit of 0.2:1, 0.5:1, 1:1 or 5:1"}, "[2]": {"target": "α7-Venus nAChR subunit (mouse) (UniProt P49582)", "sequence (P49582 23-502)": "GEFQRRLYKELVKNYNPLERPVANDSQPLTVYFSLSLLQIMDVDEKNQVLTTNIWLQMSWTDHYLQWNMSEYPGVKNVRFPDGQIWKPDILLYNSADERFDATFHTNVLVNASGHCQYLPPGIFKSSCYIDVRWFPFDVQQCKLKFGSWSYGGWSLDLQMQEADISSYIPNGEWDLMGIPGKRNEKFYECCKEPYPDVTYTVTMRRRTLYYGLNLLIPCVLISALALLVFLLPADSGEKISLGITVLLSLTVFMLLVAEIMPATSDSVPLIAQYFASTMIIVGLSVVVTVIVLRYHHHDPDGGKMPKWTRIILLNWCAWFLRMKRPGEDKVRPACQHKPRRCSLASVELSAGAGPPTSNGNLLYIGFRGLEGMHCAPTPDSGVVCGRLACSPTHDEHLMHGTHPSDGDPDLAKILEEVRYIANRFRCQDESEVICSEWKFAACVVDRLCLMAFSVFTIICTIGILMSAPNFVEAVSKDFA", "assay": "FRET or BRET; sensitized acceptor emission FRET between CFP-RIC-3 (donor) and α7-Venus, β2YFP (with nonfluorescent α4) or α4YFP (with nonfluorescent β2) co-transfected in living HEK293T cells at cDNA ratios of CFP-RIC-3 to subunit of 0.2:1, 0.5:1, 1:1 or 5:1"}}, "data": [{"substance": "CFP-RIC-3 (cyan fluorescent protein fused to the N terminus of RIC-3) (from UniProt Q7Z5B4 29-369) (natural protein)", "values": [{"measurement": "FRET efficiency (CFP-RIC-3 to β2YFP 0.2:1)", "setting": "[1]", "result": 10.8, "unit": "%"}, {"measurement": "FRET efficiency (CFP-RIC-3 to β2YFP 0.5:1)", "setting": "[1]", "result": 10.7, "unit": "%"}, {"measurement": "FRET efficiency (CFP-RIC-3 to α7-Venus 1:1)", "setting": "[2]", "result": 26, "unit": "%"}]}]}
